Laboratory results taken from patent US20170129962A1 (Hoffmann-La Roche, published 2017).
Where a chain is given by its changes, count along the chain named. Names may count otherwise.

T1: human VEGFA-121 (VEGF-A-121-His) (human, UniProt P15692-9 27-147)
T1 construct: Captured on the chip through an anti-His antibody; not shown: His tag
T1 sequence (looked up): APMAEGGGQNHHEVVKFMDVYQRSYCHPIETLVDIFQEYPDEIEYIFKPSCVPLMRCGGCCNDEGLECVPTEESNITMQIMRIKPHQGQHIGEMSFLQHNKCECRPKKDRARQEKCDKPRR

T2: human Ang-2-RBD-Fc (human, UniProt O15123 275-496, limits assumed)
T2 construct: domain: RBD; Analyte in solution; not shown: Fc part
T2 sequence (looked up): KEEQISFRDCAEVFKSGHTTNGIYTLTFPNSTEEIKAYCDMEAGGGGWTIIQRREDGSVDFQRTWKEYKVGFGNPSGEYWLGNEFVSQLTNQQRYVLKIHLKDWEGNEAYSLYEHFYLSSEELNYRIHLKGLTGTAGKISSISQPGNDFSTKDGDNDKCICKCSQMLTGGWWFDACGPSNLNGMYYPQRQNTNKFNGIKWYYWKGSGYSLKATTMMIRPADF

B1: Ang2VEGF-0454 (bispecific antibody, human IgG1, kappa)
light 1: QPGLTQPPSVSVAPGQTARITCGGNNIGSKSVHWYQQKPGQAPVLVVYDDSDRPSGIPERFSGSNSGNTATLTISRVEAGDEADYYCQVWDSSSDHYVFGTGTKVTVLRTVAAPSVFIFPPSDEQLKSGTASVVCLLNNFYPREAKVQWKVDNALQSGNSQESVTEQDSKDSTYSLSSTLTLSKADYEKHKVYACEVTHQGLSSPVTKSFNRGEC
heavy 1: not shown
light 2: DIQMTQSPSSLSASVGDRVTITCSASQDISNYLNWYQQKPGKAPKVLIYFTSSLHSGVPSRFSGSGSGTDFTLTISSLQPEDFATYYCQQYSTVPWTFGQGTKVEIKSSASTKGPSVFPLAPSSKSTSGGTAALGCLVKDYFPEPVTVSWNSGALTSGVHTFPAVLQSSGLYSLSSVVTVPSSSLGTQTYICNVNHKPSNTKVDKKVEPKSC
heavy 2: not shown
notes: also called Ang2VEGF-0454-0002; Ang2VEGF-0454-0002 (control)
B2: Ang2VEGF-0465 (bispecific antibody, human IgG1, kappa)
light 1: B1 light 1 with Q37K, E124K, Q125K
heavy 1: not shown
light 2: B1 light 2 with Q38K
heavy 2: not shown
notes: CrossMAb CH1-CL, knob-into-hole with S354C/Y349C; also called Ang2VEGF-0465-0002
B3: Ang2VEGF-0475 (bispecific antibody, human IgG1, kappa)
light 1: B1 light 1 with Q125E
heavy 1: not shown
light 2: B1 light 2
heavy 2: not shown
notes: CrossMAb CH1-CL, knob-into-hole with S354C/Y349C
B4: Ang2VEGF-0455 (bispecific antibody, human IgG1, kappa)
light 1: B1 light 1 with Q125K
heavy 1: not shown
light 2: B1 light 2
heavy 2: not shown
notes: CrossMAb CH1-CL, knob-into-hole with S354C/Y349C; also called Ang2VEGF-0455-0002
B5: Ang2VEGF-0461 (bispecific antibody, human IgG1, kappa)
light 1: B1 light 1 with E124K, Q125R
heavy 1: not shown
light 2: B1 light 2
heavy 2: not shown
notes: CrossMAb CH1-CL, knob-into-hole with S354C/Y349C; also called Ang2VEGF-0461-0002
B6: Ang2VEGF-0463 (bispecific antibody, human IgG1, kappa)
light 1: B1 light 1 with E124K, Q125R
heavy 1: not shown
light 2: B1 light 2
heavy 2: not shown
notes: CrossMAb CH1-CL, knob-into-hole with S354C/Y349C; also called Ang2VEGF-0463-0002
B7: Ang2VEGF-0466 (bispecific antibody, human IgG1, kappa)
light 1: B1 light 1 with Q37K, E124K, Q125K
heavy 1: not shown
light 2: B1 light 2 with Q38K
heavy 2: not shown
notes: CrossMAb CH1-CL, knob-into-hole with S354C/Y349C; also called Ang2VEGF-0466-0002
B8: Ang2VEGF-0460 (bispecific antibody, human IgG1, kappa)
light 1: B1 light 1
heavy 1: not shown
light 2: B1 light 2 with K205E
heavy 2: not shown
notes: CrossMAb CH1-CL, knob-into-hole with S354C/Y349C; also called Ang2VEGF-0460-0002
B9: Ang2VEGF-0462 (bispecific antibody, human IgG1, kappa)
light 1: B1 light 1 with E124K, Q125R
heavy 1: not shown
light 2: B1 light 2
heavy 2: not shown
notes: CrossMAb CH1-CL, knob-into-hole with S354C/Y349C; also called Ang2VEGF-0462-0002
B10: Ang2VEGF-0477 (bispecific antibody, human IgG1, kappa)
light 1: B1 light 1 with Q125K
heavy 1: not shown
light 2: B1 light 2
heavy 2: not shown
notes: as for B3
B11: Ang2VEGF-0474 (bispecific antibody, human IgG1, kappa)
light 1: B1 light 1 with Q125K
heavy 1: not shown
light 2: B1 light 2
heavy 2: not shown
notes: as for B3
B12: Ang2VEGF-0459 (bispecific antibody, human IgG1, kappa)
light 1: B1 light 1
heavy 1: not shown
light 2: B1 light 2 with K139E
heavy 2: not shown
notes: CrossMAb CH1-CL, knob-into-hole with S354C/Y349C; also called Ang2VEGF-0459-0002
B13: Ang2VEGF-0464 (bispecific antibody, human IgG1, kappa)
light 1: B1 light 1 with Q37E, E124K, Q125K
heavy 1: not shown
light 2: B1 light 2 with Q38K
heavy 2: not shown
notes: CrossMAb CH1-CL, knob-into-hole with S354C/Y349C; also called Ang2VEGF-0464-0002
B14: Ang2VEGF-0476 (bispecific antibody, human IgG1, kappa)
light 1: B1 light 1 with Q125E
heavy 1: not shown
light 2: B1 light 2 with K205E
heavy 2: not shown
notes: as for B3
B15: Ang2VEGF-0456 (bispecific antibody, human IgG1, kappa)
light 1: B1 light 1 with Q125K
heavy 1: not shown
light 2: B1 light 2
heavy 2: not shown
notes: CrossMAb CH1-CL, knob-into-hole with S354C/Y349C; also called Ang2VEGF-0456-0002

target: T1, human VEGFA-121 (VEGF-A-121-His); test: SPR (Biacore T200), VEGF-A-121-His captured by anti-His antibody, bispecific antibody as analyte, 1:1 Langmuir
Protocol: Around 10000 (RU) of anti His antibody (1 μg/ml anti His antibody; Order Code: 28995056; GE Healthcare Bio-Sciences AB, Sweden) were coupled on a Series S CM5 chip (GE Healthcare BR-1005-30) at pH 5.0 by using an amine coupling kit supplied by the GE Healthcare. HBS-N (10 mM HEPES, 150 mM NaCl pH 7.4, GE Healthcare) was used as running buffer during the immobilization procedure. For the following kinetic characterization, sample and running buffer was PBS-T (10 mM phosphate buffered saline including 0.05% Tween20) at pH 7.4. The flow cell was set to 25° C.—and the sample block set to 12° C.—and primed with running buffer twice prior to kinetic characterization.
(§1) Binding of the multispecific antibodies to their respective target antigens, i.e. ANG2 and VEGF, was assessed by Biacore® as described in the general methods section.

| Kd | koff | kon | Binder |
| --- | --- | --- | --- |
| 4 nM | 8.65e-05 s⁻¹ | 20400 M⁻¹ s⁻¹ | B1 |
| 5 nM | 7.96e-05 s⁻¹ | 16000 M⁻¹ s⁻¹ | B2 |
| 7 nM | 7.26e-05 s⁻¹ | 10500 M⁻¹ s⁻¹ | B3 |
| 7 nM | 9.01e-05 s⁻¹ | 12600 M⁻¹ s⁻¹ | B4 |
| 4 nM | 7.67e-05 s⁻¹ | 19200 M⁻¹ s⁻¹ | B5 |
| 4 nM | 7.44e-05 s⁻¹ | 17600 M⁻¹ s⁻¹ | B6 |
| 4 nM | 8.01e-05 s⁻¹ | 18600 M⁻¹ s⁻¹ | B7 |
| 6 nM | 8.18e-05 s⁻¹ | 14200 M⁻¹ s⁻¹ | B8 |
| 4 nM | 7.52e-05 s⁻¹ | 21200 M⁻¹ s⁻¹ | B9 |
| 3 nM | 6.1e-05 s⁻¹ | 19500 M⁻¹ s⁻¹ | B10 |
| 3 nM | 5.41e-05 s⁻¹ | 21300 M⁻¹ s⁻¹ | B11 |
| 4 nM | 7.19e-05 s⁻¹ | 17000 M⁻¹ s⁻¹ | B12 |
| 5 nM | 7.54e-05 s⁻¹ | 16600 M⁻¹ s⁻¹ | B13 |
| 4 nM | 6.94e-05 s⁻¹ | 18500 M⁻¹ s⁻¹ | B14 |
| 4 nM | 8.4e-05 s⁻¹ | 21000 M⁻¹ s⁻¹ | B15 |

target: T2, human Ang-2-RBD-Fc; test: SPR (Biacore T200), bispecific antibody captured by anti-human F(ab')2, Ang2-RBD-Fc as analyte, 1:1 Langmuir, apparent KD
Protocol: (§2) Binding of indicated antibodies to human Ang-2-RBD-Fc was investigated by surface plasmon resonance using a BIACORE® T200 instrument (GE Healthcare). Around 8000 (RU) of goat anti human F(ab′)₂ (10 μg/ml anti human F(ab)′₂; Order Code: 28958325; GE Healthcare Bio-Sciences AB, Sweden) were coupled on a Series S CMS chip (GE Healthcare BR-1005-30) at pH 5.0 by using an amine coupling kit supplied by the GE Healthcare. HBS-N (10 mM HEPES, 150 mM NaCl pH 7.4, GE Healthcare) was used as running buffer during the immobilization procedure. For the following kinetic characterization, sample and running buffer was PBS-T (10 mM phosphate buffered saline including 0.05% Tween20) at pH 7.4. The flow cell was set to 25° C.—and the sample block set to 12° C.—and primed with running buffer twice prior to kinetic characterization.
(§3) The bispecific antibody was captured by injecting a 5 nM solution for 25 sec at a flow of 5 μl/min. The association was measured by injection of human Ang2-RBD-Fc in various concentrations in solution for 120 sec at a flow of 30 μl/min starting with 100 nM in 1:3 serial dilutions. The dissociation phase was monitored for up to 180 sec and triggered by switching from the sample solution to running buffer. The surface was regenerated by 60 sec washing with a Glycine pH 2.1 solution at a flow rate of 30 μl/min. Bulk refractive index differences were corrected by subtracting the response obtained from a goat anti human F(ab′)₂ surface. Blank injections are also subtracted (=double referencing). For calculation of apparent KD the Langmuir 1:1 model was used.

| Kd | Binder |
| --- | --- |
| 2 nM | B1 |
| 3 nM | B2 |
| 4 nM | B3 |
| 2 nM | B4 |
| 2 nM | B5 |
| 3 nM | B6 |
| 3 nM | B7 |
| 2 nM | B8 |
| 2 nM | B9 |
| 4 nM | B10 |
| 5 nM | B11 |
| 2 nM | B12 |
| 2 nM | B13 |
| 9 nM | B14 |
| 2 nM | B15 |

target: T2, human Ang-2-RBD-Fc; test: SPR (Biacore T200), bispecific antibody captured by anti-human F(ab')2, Ang2-RBD-Fc as analyte, 1:1 Langmuir
Protocol: as §2, §3, §1

| koff | kon | Binder |
| --- | --- | --- |
| 0.0182 s⁻¹ | 1.08e+07 M⁻¹ s⁻¹ | B1 |
| 0.0325 s⁻¹ | 1.17e+07 M⁻¹ s⁻¹ | B2 |
| 0.00505 s⁻¹ | 1.38e+06 M⁻¹ s⁻¹ | B3 |
| 0.0227 s⁻¹ | 1.06e+07 M⁻¹ s⁻¹ | B4 |
| 0.0163 s⁻¹ | 1.07e+07 M⁻¹ s⁻¹ | B5 |
| 0.0281 s⁻¹ | 9.54e+06 M⁻¹ s⁻¹ | B6 |
| 0.031 s⁻¹ | 1.06e+07 M⁻¹ s⁻¹ | B7 |
| 0.0163 s⁻¹ | 8.76e+06 M⁻¹ s⁻¹ | B8 |
| 0.0252 s⁻¹ | 1.21e+07 M⁻¹ s⁻¹ | B9 |
| 0.00823 s⁻¹ | 2.19e+06 M⁻¹ s⁻¹ | B10 |
| 0.0097 s⁻¹ | 2.04e+06 M⁻¹ s⁻¹ | B11 |
| 0.0199 s⁻¹ | 8.8e+06 M⁻¹ s⁻¹ | B12 |
| 0.0172 s⁻¹ | 8.81e+06 M⁻¹ s⁻¹ | B13 |
| 0.0114 s⁻¹ | 1.32e+06 M⁻¹ s⁻¹ | B14 |
| 0.0252 s⁻¹ | 1.16e+07 M⁻¹ s⁻¹ | B15 |
